Measured values taken from US12679878B2, “CRF2 receptor agonists and their use in therapy” (SANOFI, priority 2020, dated 2026).
Starred links: 1 amine or outer side, 2 acyl side, 3 side chain; linkers in the order of their positions; H or OH if unused. Non-standard residues stand in square brackets, D forms with d. Groups on a side chain read outwards from the residue. No end group written: not given here. *: point of attachment. C18 diacid = O=C(O)CCCCCCCCCCCCCCCCC(=O)*; γGlu = O=C(O)[C@H](CCC(=O)[*:2])N[*:1]; Palmitoyl = CCCCCCCCCCCCCCCC(=O)*; AEEA = NCCOCCOCC(=O)O; Aib = CC(C)(N)C(=O)O

Molecular target: human corticotropin-releasing factor 2α (CRF2 α receptor) (human), Q13324
Sequence (Q13324 20-411): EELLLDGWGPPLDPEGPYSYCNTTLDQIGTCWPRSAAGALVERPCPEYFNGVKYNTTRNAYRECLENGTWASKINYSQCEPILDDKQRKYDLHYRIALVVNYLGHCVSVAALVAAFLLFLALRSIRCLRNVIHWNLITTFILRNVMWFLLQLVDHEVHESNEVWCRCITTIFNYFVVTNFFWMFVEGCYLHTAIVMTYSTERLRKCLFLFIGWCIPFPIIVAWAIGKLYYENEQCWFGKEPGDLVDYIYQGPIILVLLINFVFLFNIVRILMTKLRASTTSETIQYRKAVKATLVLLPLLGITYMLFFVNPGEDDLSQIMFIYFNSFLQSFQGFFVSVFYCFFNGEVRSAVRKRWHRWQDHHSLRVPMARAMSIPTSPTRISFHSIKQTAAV
Experiment: cell-based or functional assay

Row | Binder | EC50 [nM], 0% HSA | EC50 [nM], 0.1% HSA
1 | IVLSLDVPIKLK([AEEA-AEEA-γGlu-C18 diacid])QILLEQAKQKKERAQAETNVRILERV-NH2 (N-terminus assumed; SMILES CC[C@H](C)[C@H](N)C(=O)N[C@H](C(=O)N[C@@H](CC(C)C)C(=O)N[C@@H](CO)C(=O)N[C@@H](CC(C)C)C(=O)N[C@@H](CC(=O)O)C(=O)N[C@H](C(=O)N1CCC[C@H]1C(=O)N[C@H](C(=O)N[C@@H](CCCCN)C(=O)N[C@@H](CC(C)C)C(=O)N[C@@H](CCCCNC(=O)COCCOCCNC(=O)COCCOCCNC(=O)CC[C@H](NC(=O)CCCCCCCCCCCCCCCCC(=O)O)C(=O)O)C(=O)N[C@@H](CCC(N)=O)C(=O)N[C@H](C(=O)N[C@@H](CC(C)C)C(=O)N[C@@H](CC(C)C)C(=O)N[C@@H](CCC(=O)O)C(=O)N[C@@H](CCC(N)=O)C(=O)N[C@@H](C)C(=O)N[C@@H](CCCCN)C(=O)N[C@@H](CCC(N)=O)C(=O)N[C@@H](CCCCN)C(=O)N[C@@H](CCCCN)C(=O)N[C@@H](CCC(=O)O)C(=O)N[C@@H](CCCNC(=N)N)C(=O)N[C@@H](C)C(=O)N[C@@H](CCC(N)=O)C(=O)N[C@@H](C)C(=O)N[C@@H](CCC(=O)O)C(=O)N[C@H](C(=O)N[C@@H](CC(N)=O)C(=O)N[C@H](C(=O)N[C@@H](CCCNC(=N)N)C(=O)N[C@H](C(=O)N[C@@H](CC(C)C)C(=O)N[C@@H](CCC(=O)O)C(=O)N[C@@H](CCCNC(=N)N)C(=O)N[C@H](C(N)=O)C(C)C)[C@@H](C)CC)C(C)C)[C@@H](C)O)[C@@H](C)CC)[C@@H](C)CC)C(C)C)C(C)C) [SEQ ID NO: 44] | 13.7 nM | –
2 | IVLSLDVPIKLK([AEEA-AEEA-γGlu-C18 diacid])QILLEQERQR[Aib]ERQQAEKNVRILERV-NH2 (N-terminus assumed; SMILES CC[C@H](C)[C@H](N)C(=O)N[C@H](C(=O)N[C@@H](CC(C)C)C(=O)N[C@@H](CO)C(=O)N[C@@H](CC(C)C)C(=O)N[C@@H](CC(=O)O)C(=O)N[C@H](C(=O)N1CCC[C@H]1C(=O)N[C@H](C(=O)N[C@@H](CCCCN)C(=O)N[C@@H](CC(C)C)C(=O)N[C@@H](CCCCNC(=O)COCCOCCNC(=O)COCCOCCNC(=O)CC[C@H](NC(=O)CCCCCCCCCCCCCCCCC(=O)O)C(=O)O)C(=O)N[C@@H](CCC(N)=O)C(=O)N[C@H](C(=O)N[C@@H](CC(C)C)C(=O)N[C@@H](CC(C)C)C(=O)N[C@@H](CCC(=O)O)C(=O)N[C@@H](CCC(N)=O)C(=O)N[C@@H](CCC(=O)O)C(=O)N[C@@H](CCCNC(=N)N)C(=O)N[C@@H](CCC(N)=O)C(=O)N[C@@H](CCCNC(=N)N)C(=O)NC(C)(C)C(=O)N[C@@H](CCC(=O)O)C(=O)N[C@@H](CCCNC(=N)N)C(=O)N[C@@H](CCC(N)=O)C(=O)N[C@@H](CCC(N)=O)C(=O)N[C@@H](C)C(=O)N[C@@H](CCC(=O)O)C(=O)N[C@@H](CCCCN)C(=O)N[C@@H](CC(N)=O)C(=O)N[C@H](C(=O)N[C@@H](CCCNC(=N)N)C(=O)N[C@H](C(=O)N[C@@H](CC(C)C)C(=O)N[C@@H](CCC(=O)O)C(=O)N[C@@H](CCCNC(=N)N)C(=O)N[C@H](C(N)=O)C(C)C)[C@@H](C)CC)C(C)C)[C@@H](C)CC)[C@@H](C)CC)C(C)C)C(C)C) [SEQ ID NO: 42] | 15.4 nM | –
3 | IVLSLDVPIKLK([γGlu-Palmitoyl])KILLEQEKQEKEKQQAETNAQILAQV-NH2 (N-terminus assumed; SMILES CCCCCCCCCCCCCCCC(=O)N[C@@H](CCC(=O)NCCCC[C@H](NC(=O)[C@H](CC(C)C)NC(=O)[C@H](CCCCN)NC(=O)[C@@H](NC(=O)[C@@H]1CCCN1C(=O)[C@@H](NC(=O)[C@H](CC(=O)O)NC(=O)[C@H](CC(C)C)NC(=O)[C@H](CO)NC(=O)[C@H](CC(C)C)NC(=O)[C@@H](NC(=O)[C@@H](N)[C@@H](C)CC)C(C)C)C(C)C)[C@@H](C)CC)C(=O)N[C@@H](CCCCN)C(=O)N[C@H](C(=O)N[C@@H](CC(C)C)C(=O)N[C@@H](CC(C)C)C(=O)N[C@@H](CCC(=O)O)C(=O)N[C@@H](CCC(N)=O)C(=O)N[C@@H](CCC(=O)O)C(=O)N[C@@H](CCCCN)C(=O)N[C@@H](CCC(N)=O)C(=O)N[C@@H](CCC(=O)O)C(=O)N[C@@H](CCCCN)C(=O)N[C@@H](CCC(=O)O)C(=O)N[C@@H](CCCCN)C(=O)N[C@@H](CCC(N)=O)C(=O)N[C@@H](CCC(N)=O)C(=O)N[C@@H](C)C(=O)N[C@@H](CCC(=O)O)C(=O)N[C@H](C(=O)N[C@@H](CC(N)=O)C(=O)N[C@@H](C)C(=O)N[C@@H](CCC(N)=O)C(=O)N[C@H](C(=O)N[C@@H](CC(C)C)C(=O)N[C@@H](C)C(=O)N[C@@H](CCC(N)=O)C(=O)N[C@H](C(N)=O)C(C)C)[C@@H](C)CC)[C@@H](C)O)[C@@H](C)CC)C(=O)O) [SEQ ID NO: 2] | 0.01 nM | 0.01 nM
4 | IVLSLDVPIKLK([AEEA-AEEA-γGlu-C18 diacid])QILLEQAKQKKLRAQAETNVRILERV-NH2 (N-terminus assumed; SMILES CC[C@H](C)[C@H](N)C(=O)N[C@H](C(=O)N[C@@H](CC(C)C)C(=O)N[C@@H](CO)C(=O)N[C@@H](CC(C)C)C(=O)N[C@@H](CC(=O)O)C(=O)N[C@H](C(=O)N1CCC[C@H]1C(=O)N[C@H](C(=O)N[C@@H](CCCCN)C(=O)N[C@@H](CC(C)C)C(=O)N[C@@H](CCCCNC(=O)COCCOCCNC(=O)COCCOCCNC(=O)CC[C@H](NC(=O)CCCCCCCCCCCCCCCCC(=O)O)C(=O)O)C(=O)N[C@@H](CCC(N)=O)C(=O)N[C@H](C(=O)N[C@@H](CC(C)C)C(=O)N[C@@H](CC(C)C)C(=O)N[C@@H](CCC(=O)O)C(=O)N[C@@H](CCC(N)=O)C(=O)N[C@@H](C)C(=O)N[C@@H](CCCCN)C(=O)N[C@@H](CCC(N)=O)C(=O)N[C@@H](CCCCN)C(=O)N[C@@H](CCCCN)C(=O)N[C@@H](CC(C)C)C(=O)N[C@@H](CCCNC(=N)N)C(=O)N[C@@H](C)C(=O)N[C@@H](CCC(N)=O)C(=O)N[C@@H](C)C(=O)N[C@@H](CCC(=O)O)C(=O)N[C@H](C(=O)N[C@@H](CC(N)=O)C(=O)N[C@H](C(=O)N[C@@H](CCCNC(=N)N)C(=O)N[C@H](C(=O)N[C@@H](CC(C)C)C(=O)N[C@@H](CCC(=O)O)C(=O)N[C@@H](CCCNC(=N)N)C(=O)N[C@H](C(N)=O)C(C)C)[C@@H](C)CC)C(C)C)[C@@H](C)O)[C@@H](C)CC)[C@@H](C)CC)C(C)C)C(C)C) [SEQ ID NO: 43] | 1.9 nM | –
